Substrate: [O-][Cl+]O
Test: Clark-type oxygen electrode, O2 release
Assay type: biochemical, Cyanothece sp. PCC 7425
Settings: 50 mM citrate phosphate pH 5.0, 30°C

B1: CCld (chlorite dismutase from Cyanothece sp. PCC7425) (Cyanothece sp. PCC 7425) (protein)
chain: NNRYSFIGGRTGQWQVVKIRNVLGPGLQLVEKVNILNGAVAEIPLDSAWRLQGFASNIRYAIRTELEALQAVQPMLNRAEAILAVLIPIKKSAQWWEMAQDERRDIFERESHHTAVGLEYLPGVARRLLHCRDLGEEFDFLTWFEFAPEHSSAFNELLLRMRASKEWEYVEREVEVWLKRL
notes: heme b
Protein B1 has a Km of 162 ± 10.0 µM and a kcat of 1144 ± 23.8 s⁻¹.

From publication PMC4973843, “Dimeric chlorite dismutase from the nitrogen‐fixing cyanobacterium C yanothece sp. PCC7425” (Molecular Microbiology, 2015)
